Results on seven molecules are retold here after patent US9958461B2, “Detection of protein to protein interactions” (THE GOVERNING COUNCIL OF THE UNIVERSITY OF TORONTO, priority 2013, dated 2018).

Assay [1] addresses T1, EGFR-Wt (Homo sapiens, UniProt P00533).
T1 construct: with the advantage of testing full-length integral membrane proteins; (GGGGS)2 linker-Cub (human ubiquitin aa 35-76)-GAL4(1-147)-mNFkB(364-550) (C); expressed in transfected cells
Description: MaMTH EGFR-interactor screen, lentiviral preys against EGFR-wildtype bait (interaction score). The note with it: MaMTH interaction score of prey with EGFR-Wt bait, mean. The class given is cell-based. Summed up: (§1)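 Interaction score is the luciferase fold-change versus averaged negative controls (Fabp5, Pex19, Pex7, GABBR2), with >1 called interacting. Luciferase was measured 24 h after triplicate bait transfection. This followed single-copy prey transduction (MOI ~0.3-0.4) of GAL4UAS-luciferase HEK293T cells and ≥48 h puromycin selection.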

The test system of assay [2] is EGFR-Wt. The assay is described as above. The class given is cell-based, human. The following applies: ratio of EGFR-Wt mean to EGFR-L858R mean interaction score. Summed up: as §1
Another assay concerns the target T2, EGFR-L858R (Homo sapiens, UniProt P00533, L858R).
T2 construct: with the advantage of testing full-length integral membrane proteins; (GGGGS)2 linker-Cub (human ubiquitin aa 35-76)-GAL4(1-147)-mNFkB(364-550) (C); expressed in transfected cells
As to the kind of experiment: MaMTH EGFR-interactor screen, lentiviral preys against EGFR-L858R bait (interaction score). The class given is cell-based. The note with it: MaMTH interaction score of prey with EGFR-L858R bait. The method, boiled down: as §1

B1: WASL (protein, UniProt O00401 2-505, looked up)
Actin nucleation-promoting …: SSVQQQPPPPRRVTNVGSLLLTPQENESLFTFLGKKCVTMSSAVVQLYAADRNCMWSKKCSGVACLVKDNPQRSYFLRIFDIKDGKLLWEQELYNNFVYNSPRGYFHTFAGDTCQVALNFANEEEAKKFRKAVTDLLGRRQRKSEKRRDPPNGPNLPMATVDIKNPEITTNRFYGPQVNNISHTKEKKKGKAKKKRLTKADIGTPSNFQHIGHVGWDPNTGFDLNNLDPELKNLFDMCGISEAQLKDRETSKVIYDFIEKTGGVEAVKNELRRQAPPPPPPSRGGPPPPPPPPHNSGPPPPPARGRGAPPPPPSRAPTAAPPPPPPSRPSVAVPPPPPNRMYPPPPPALPSSAPSGPPPPPPSVLGVGPVAPPPPPPPPPPPGPPPPPGLPSDGDHQVPTTAGNKAALLDQIREGAQLKKVEQNSRPVSCSGRDALLDQIRQGIQLKSVADGQESTPPTPAPTSGIVGALMEVMQKRSKAIHSSDEDEDEDDEEDFEDDDEWED
For B1, the EGFR-Wt mean in the assay with EGFR-Wt [1] came to 1.41. Also, the Wt/L858R in the assay with EGFR-Wt [2] is listed as 0.73. The EGFR-L858R mean with EGFR-L858R turned out to be 1.93.

B2: MED28 (protein, UniProt Q9H204 1-178, looked up)
Mediator of RNA polymerase II …: MAAPLGGMFSGQPPGPPQAPPGLPGQASLLQAAPGAPRPSSSTLVDELESSFEACFASLVSQDYVNGTDQEEIRTGVDQCIQKFLDIARQTECFFLQKRLQLSVQKPEQVIKEDVSELRNELQRKDALVQKHLTKLRHWQQVLEDINVQHKKPADIPQGSLAYLEQASANIPAPLKPT
For the molecule B2, in the assay with EGFR-Wt [1], the EGFR-Wt mean came out at 0.87. In addition, in the assay with EGFR-Wt [2], the Wt/L858R stood at 0.76. The same molecule returned an EGFR-L858R mean in the assay with EGFR-L858R of 1.14.

B3: BCAR3 (protein, UniProt O75815 2-825, looked up)
Breast cancer anti-estrogen …: AAGKFASLPRNMPVNHQFPLASSMDLLSSRSPLAEHRPDAYQDVSIHGTLPRKKKGPPPIRSCDDFSHMGTLPHSKSPRQNSPVTQDGIQESPWQDRHGETFTFRDPHLLDPTVEYVKFSKERHIMDRTPEKLKKELEEELLLSSEDLRSHAWYHGRIPRQVSENLVQRDGDFLVRDSLSSPGNFVLTCQWKNLAQHFKINRTVLRLSEAYSRVQYQFEMESFDSIPGLVRCYVGNRRPISQQSGAIIFQPINRTVPLRCLEEHYGTSPGQAREGSLTKGRPDVAKRLSLTMGGVQAREQNLPRGNLLRNKEKSGSQPACLDHMQDRRALSLKAHQSESYLPIGCKLPPQSSGVDTSPCPNSPVFRTGSEPALSPAVVRRVSSDARAGEALRGSDSQLCPKPPPKPCKVPFLKVPSSPSAWLNSEANYCELNPAFATGCGRGAKLPSCAQGSHTELLTAKQNEAPGPRNSGVNYLILDDDDRERPWEPAAAQMEKGQWDKGEFVTPLLETVSSFRPNEFESKFLPPENKPLETAMLKRAKELFTNNDPKVIAQHVLSMDCRVARILGVSEEMRRNMGVSSGLELITLPHGHQLRLDIIERHNTMAIGIAVDILGCTGTLEDRAATLSKIIQVAVELKDSMGDLYSFSALMKALEMPQITRLEKTWTALRHQYTQTAILYEKQLKPFSKLLHEGRESTCVPPNNVSVPLLMPLVTLMERQAVTFEGTDMWEKNDQSCEIMLNHLATARFMAEAADSYRMNAERILAGFQPDEEMNEICKTEFQMRLLWGSKGAQVNQTERYEKFNQILTALSRKLEPPPVKQAEL
In the assay with EGFR-Wt [1], B3 returned an EGFR-Wt mean of 0.79. In the assay with EGFR-Wt [2], the Wt/L858R is given as 0.75. This molecule showed an EGFR-L858R mean with EGFR-L858R of 1.06.

B4: TXN (protein, UniProt P10599 2-105, looked up)
Thioredoxin: VKQIESKTAFQEALDAAGDKLVVVDFSATWCGPCKMIKPFFHSLSEKYSNVIFLEVDVDDCQDVASECEVKCMPTFQFFKKGQKVGEFSGANKEKLEATINELV
B4 returned an EGFR-Wt mean in the assay with EGFR-Wt [1] of 5.10. Also, in the assay on EGFR-Wt [2], the Wt/L858R is listed as 0.73. Moreover, the EGFR-L858R mean in the assay with EGFR-L858R is recorded as 7.03.

B5: PTK2 (protein, UniProt Q05397 2-1052, looked up)
Focal adhesion kinase 1: AAAYLDPNLNHTPNSSTKTHLGTGMERSPGAMERVLKVFHYFESNSEPTTWASIIRHGDATDVRGIIQKIVDSHKVKHVACYGFRLSHLRSEEVHWLHVDMGVSSVREKYELAHPPEEWKYELRIRYLPKGFLNQFTEDKPTLNFFYQQVKSDYMLEIADQVDQEIALKLGCLEIRRSYWEMRGNALEKKSNYEVLEKDVGLKRFFPKSLLDSVKAKTLRKLIQQTFRQFANLNREESILKFFEILSPVYRFDKECFKCALGSSWIISVELAIGPEEGISYLTDKGCNPTHLADFTQVQTIQYSNSEDKDRKGMLQLKIAGAPEPLTVTAPSLTIAENMADLIDGYCRLVNGTSQSFIIRPQKEGERALPSIPKLANSEKQGMRTHAVSVSETDDYAEIIDEEDTYTMPSTRDYEIQRERIELGRCIGEGQFGDVHQGIYMSPENPALAVAIKTCKNCTSDSVREKFLQEALTMRQFDHPHIVKLIGVITENPVWIIMELCTLGELRSFLQVRKYSLDLASLILYAYQLSTALAYLESKRFVHRDIAARNVLVSSNDCVKLGDFGLSRYMEDSTYYKASKGKLPIKWMAPESINFRRFTSASDVWMFGVCMWEILMHGVKPFQGVKNNDVIGRIENGERLPMPPNCPPTLYSLMTKCWAYDPSRRPRFTELKAQLSTILEEEKAQQEERMRMESRRQATVSWDSGGSDEAPPKPSRPGYPSPRSSEGFYPSPQHMVQTNHYQVSGYPGSHGITAMAGSIYPGQASLLDQTDSWNHRPQEIAMWQPNVEDSTVLDLRGIGQVLPTHLMEERLIRQQQEMEEDQRWLEKEERFLKPDVRLSRGSIDREDGSLQGPIGNQHIYQPVGKPDPAAPPKKPPRPGAPGHLGSLASLSSPADSYNEGVKLQPQEISPPPTANLDRSNDKVYENVTGLVKAVIEMSSKIQPAPPEEYVPMVKEVGLALRTLLATVDETIPLLPASTHREIEMAQKLLNSDLGELINKMKLAQQYVMTSLQQEYKKQMLTAAHALAVDAKNLLDVIDQARLKMLGQTRPH
In turn, B5 returned an EGFR-Wt mean in the assay with EGFR-Wt [1] of 4.05. Moreover, the Wt/L858R in the assay with EGFR-Wt [2] is given as 0.72. In the assay with EGFR-L858R, this molecule yielded an EGFR-L858R mean of 5.59.

B6: CRKL (protein, UniProt P46109 1-303, looked up)
Crk-like protein: MSSARFDSSDRSAWYMGPVSRQEAQTRLQGQRHGMFLVRDSSTCPGDYVLSVSENSRVSHYIINSLPNRRFKIGDQEFDHLPALLEFYKIHYLDTTTLIEPAPRYPSPPMGSVSAPNLPTAEDNLEYVRTLYDFPGNDAEDLPFKKGEILVIIEKPEEQWWSARNKDGRVGMIPVPYVEKLVRSSPHGKHGNRNSNSYGIPEPAHAYAQPQTTTPLPAVSGSPGAAITPLPSTQNGPVFAKAIQKRVPCAYDKTALALEVGDIVKVTRMNINGQWEGEVNGRKGLFPFTHVKIFDPQNPDENE
B6: in the assay with EGFR-Wt [1], the EGFR-Wt mean is 10.25. Further, in the assay with EGFR-Wt [2], the Wt/L858R was determined as 0.75. For the same molecule, the EGFR-L858R mean with EGFR-L858R came to 13.65.

B7: ANKS1A (protein, UniProt Q92625 2-1134, looked up)
Ankyrin repeat and SAM …: GKEQELLEAARTGHLPAVEKLLSGKRLSSGFGGGGGGGSGGGGGGSGGGGGGLGSSSHPLSSLLSMWRGPNVNCVDSTGYTPLHHAALNGHKDVVEVLLRNDALTNVADSKGCYPLHLAAWKGDAQIVRLLIHQGPSHTRVNEQNNDNETALHCAAQYGHTEVVKVLLEELTDPTMRNNKFETPLDLAALYGRLEVVKMLLNAHPNLLSCNTKKHTPLHLAARNGHKAVVQVLLDAGMDSNYQTEMGSALHEAALFGKTDVVQILLAAGTDVNIKDNHGLTALDTVRELPSQKSQQIAALIEDHMTGKRSTKEVDKTPPPQPPLISSMDSISQKSQGDVEKAVTELIIDFDANAEEEGPYEALYNAISCHSLDSMASGRSSDQDSTNKEAEAAGVKPAGVRPRERPPPPAKPPPDEEEEDHIDKKYFPLTASEVLSMRPRIHGSAAREEDEHPYELLLTAETKKVVLVDGKTKDHRRSSSSRSQDSAEGQDGQVPEQFSGLLHGSSPVCEVGQDPFQLLCTAGQSHPDGSPQQGACHKASMQLEETGVHAPGASQPSALDQSKRVGYLTGLPTTNSRSHPETLTHTASPHPGGAEEGDRSGARSRAPPTSKPKAELKLSRSLSKSDSDLLTCSPTEDATMGSRSESLSNCSIGKKRLEKSPSFASEWDEIEKIMSSIGEGIDFSQERQKISGLRTLEQSVGEWLESIGLQQYESKLLLNGFDDVHFLGSNVMEEQDLRDIGISDPQHRRKLLQAARSLPKVKALGYDGNSPPSVPSWLDSLGLQDYVHSFLSSGYSSIDTVKNLWELELVNVLKVQLLGHRKRIIASLADRPYEEPPQKPPRFSQLRCQDLLSQTSSPLSQNDSCTGRSADLLLPPGDTGRRRHDSLHDPAAPSRAERFRIQEEHREAKLTLRPPSLAAPYAPVQSWQHQPEKLIFESCGYEANYLGSMLIKDLRGTESTQDACAKMRKSTEHMKKIPTIILSITYKGVKFIDASNKNVIAEHEIRNISCAAQDPEDLCTFAYITKDLQTSHHYCHVFSTVDVNLTYEIILTLGQAFEVAYQLALQAQKSRATGASAAEMIETKSSKPVPKPRVGVRKSALEPPDMDQDAQSHASVSWVVDPKPDSKRSLSTN
For B7, in the assay with EGFR-Wt [1], the EGFR-Wt mean was 9.27. Besides, the Wt/L858R with EGFR-Wt [2] was 0.79. Besides, the EGFR-L858R mean in the assay with EGFR-L858R was 11.76.
